Data as given in US20120108492A1 (REGENTS OF THE UNIVERSITY OF COLORADO, published 2012).

Molecular target: wild-type recombinant EBV gp350 (residues 1-470 of EBV gp350/220, BCCP, myc, hexa-histidine) (Epstein-Barr virus (B95-8); Escherichia …, UniProt P03200 1-470; P0ABD8 70-156)
Test: ELISA, wild-type gp350 on plate, MBP-CR2 SCR1-2 mutant in solution

Chain of wild-type recombinant EBV gp350 (residues 1-470 of EBV gp350/220, BCCP, myc, hexa-histidine) (P03200 1-470, tags or fused parts left off): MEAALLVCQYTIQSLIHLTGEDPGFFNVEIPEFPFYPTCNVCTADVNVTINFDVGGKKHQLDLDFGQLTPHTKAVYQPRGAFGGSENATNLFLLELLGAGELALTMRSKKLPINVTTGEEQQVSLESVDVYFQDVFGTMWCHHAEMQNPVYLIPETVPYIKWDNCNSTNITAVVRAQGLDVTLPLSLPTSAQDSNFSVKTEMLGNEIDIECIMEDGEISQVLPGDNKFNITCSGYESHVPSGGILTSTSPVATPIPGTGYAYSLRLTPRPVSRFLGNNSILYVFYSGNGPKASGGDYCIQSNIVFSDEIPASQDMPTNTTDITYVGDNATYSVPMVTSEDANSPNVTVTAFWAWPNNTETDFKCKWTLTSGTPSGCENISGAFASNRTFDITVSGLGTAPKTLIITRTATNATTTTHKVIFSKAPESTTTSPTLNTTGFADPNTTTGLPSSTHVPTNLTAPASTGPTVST

B1: MBP-CR2 SCR1-2 K67A (receptor)
chain: ISCGSPPPILNGRISYYSTPIAVGTVIRYSCSGTFRLIGEKSLLCITKDKVDGTWDKPAPKCEYFNAYSSCPEPIVPGGYKIRGSTPYRHGDSVTFACKTNFSMNGNKSVWCQANNMWGPTRLPTCVSVFPLE
notes: not shown: MBP tag encoded by pMAL-p2x and the vector linker between MBP and CR2
**Q.** B1 was tested. Which “decrease in EBV gp350 binding relative to wild-type” value did it give?
**A.** ~20%
